The results in this text go back to patent US20030211470A1.

The target in test [1] is HIV-1IIIB gp120/gp41 stably expressed on CHO cells (HIV-1 IIIB). Kind of test: cell-based or functional assay.
The target in test [2] is recombinant gp120 from the laboratory-adapted strain HIV-1LAI (HIV-1 LAI) (UniProt P03377). Kind of test: modified ELISA; gp120 captured on plate, CD4-IgG2 titrated, 1 h at 37 C, 50% of maximal binding.
Test [3] concerns the target recombinant gp120 from the primary isolate HIV-1JR-FL (HIV-1 JR-FL) (UniProt P20871). The description is as above.

pEC50: −log10 of the molar value.

Regarding “CD4-IgG2 chimeric heterotetramer (Fc fusion)”, in test [1], the IC50 (nM), syncytium inhibition was determined as 9 nM; the IC50 (µg/ml), syncytium inhibition amounted to 1.81 µg/mL; the Relative Potency (mass), relative to sCD4 was found to be 5.1 fold; the Relative Potency (molarity), relative to sCD4 was determined as 22.2 fold. In test [2], the pEC50 is 8.90. Further, the negative logarithm of the EC50 (pEC50) in test [3] is 9.19.
Turning to “CD4-gamma2 chimeric heavy chain homodimer (Fc fusion)”, in test [1], the IC50 (nM), syncytium inhibition was 40 nM and the IC50 (µg/ml), syncytium inhibition was 4.03 µg/mL.
